Consider 15 molecules from patent publication US20220267464A1 (Hoffmann-La Roche, published 2022).

In assay [1] the target is T1, human CEACAM5 (carcinoembryonic antigen, CEA) on cells (human, UniProt P06731 35-685).
T1 construct: endogenous on MKN45 gastric adenocarcinoma cells; full-length cDNA stably transfected in the CHO-K1 clones; also called huCEACAM5; MKN45 cells
T1 sequence: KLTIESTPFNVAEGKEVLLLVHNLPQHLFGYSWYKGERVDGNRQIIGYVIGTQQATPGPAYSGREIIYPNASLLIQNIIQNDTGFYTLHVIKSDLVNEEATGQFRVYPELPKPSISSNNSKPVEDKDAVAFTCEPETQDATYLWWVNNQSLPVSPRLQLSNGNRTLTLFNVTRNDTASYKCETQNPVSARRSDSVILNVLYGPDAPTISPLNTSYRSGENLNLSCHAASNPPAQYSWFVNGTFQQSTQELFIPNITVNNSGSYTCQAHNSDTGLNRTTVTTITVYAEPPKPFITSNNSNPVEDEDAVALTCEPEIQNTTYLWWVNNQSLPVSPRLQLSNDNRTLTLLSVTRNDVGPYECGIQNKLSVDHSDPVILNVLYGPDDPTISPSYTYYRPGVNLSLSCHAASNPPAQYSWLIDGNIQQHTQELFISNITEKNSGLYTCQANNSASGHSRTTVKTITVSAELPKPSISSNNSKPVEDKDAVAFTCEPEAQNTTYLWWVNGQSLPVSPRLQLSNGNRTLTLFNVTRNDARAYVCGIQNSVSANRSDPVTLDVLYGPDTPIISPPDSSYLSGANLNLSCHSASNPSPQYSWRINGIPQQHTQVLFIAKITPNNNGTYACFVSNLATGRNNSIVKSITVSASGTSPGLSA
Put plainly: flow cytometry, MKN45 cells. Further details: AUC: unit not given beside the values.

Assay [2] has as its target T1, human CEACAM5 (carcinoembryonic …). In words: flow cytometry, MKN-45 cells, goat F(ab')2 anti-human Fcγ-PE, gMFI.
A further assay concerns the target T2, hu N(A2-B2)A-avi-His (human, biotin on the avi tag where used biotinylated).
T2 construct: chimeric soluble antigen; also called hu N(A2-B2)A-avi-His B; human CEA (A2 domain)
T2 chain: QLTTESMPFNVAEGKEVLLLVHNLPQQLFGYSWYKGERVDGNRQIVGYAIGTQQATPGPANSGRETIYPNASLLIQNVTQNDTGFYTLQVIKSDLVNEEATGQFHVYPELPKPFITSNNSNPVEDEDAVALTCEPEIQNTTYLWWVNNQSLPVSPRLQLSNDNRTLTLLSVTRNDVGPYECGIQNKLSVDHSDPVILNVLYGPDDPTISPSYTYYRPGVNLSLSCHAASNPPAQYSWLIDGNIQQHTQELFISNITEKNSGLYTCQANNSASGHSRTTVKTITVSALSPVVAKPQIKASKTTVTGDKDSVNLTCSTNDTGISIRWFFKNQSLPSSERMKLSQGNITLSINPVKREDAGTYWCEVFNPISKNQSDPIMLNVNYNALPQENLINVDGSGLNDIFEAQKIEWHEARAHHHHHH
Put plainly: SPR (Biacore T200), antigen on CM5 chip, Fab as analyte. From the text: Data were double-referenced against the unimmobilized flow cell 1 and a zero concentration of the analyte. The sensorgrams of the analytes were fitted to a simple 1:1 Langmuir interaction model.

B1: P1AE3112 (antibody, IgG1, V domains shown)
VH: QVQLVQSGAEVKKPGASVKVSCKASGYTFKDSYMHWVRQAPGQGLEWMGWIDPENGDTEYAPKFQGRVTMTTDTSISTAYMELSRLRSDDTAVYYCNEGTPTGPYYFDYWGQGTLVTVSS
VL: EIQMTQSPSSLSASVGDRVTITCRASQSISSYMHWYQQKPGKAPKLLIYSTSNLASGVPSRFSGSGSGTDFTLTISSLQPEDFATYYCQQRSSYPLTFGGGTKLEIK
notes: huIgG1 P329G LALA; also called MFE-H25 / MFE-L26
For the molecule B1, the AUC in assay [1] was determined as 551. Moreover, the binding result in assay [2] was “no binding (tested: about 300 nM)”.

B2: P1AE3106 (antibody, IgG1, V domains shown)
VH: QVQLVQSGAEVKKPGASVKVSCKASGYTFKDSYMHWVRQAPGQGLEWMGWIDPENGDTEYAPKFQGRVTMTTDTSISTAYMELSRLRSDDTAVYYCNEGTPTGPYYFDYWGQGTLVTVSS
VL: EIQMTQSPSSLSASVGDRVTITCRASSSVPYMHWYQQKPGKAPKLLIYSTSNLASGVPSRFSGSGSGTDFTLTISSVQPEDFATYYCQQRSSYPLTFGGGTKLEIK
notes: huIgG1 P329G LALA; also called MFE-H25 / MFE-L27
For B2, the AUC in assay [1] was found to be 1130. Besides, in assay [2], the binding result is “no binding (tested: about 300 nM)”.

B3: P1AE3118 (antibody, IgG1, V domains shown)
VH: QVQLVQSGAEVKKPGASVKVSCKASGYTFKDSYMHWVRQAPGQGLEWMGWIDPENGDTEYAPKFQGRVTMTTDTSISTAYMELSRLRSDDTAVYYCNEGTPTGPYYFDYWGQGTLVTVSS
VL: EIQMTQSPSSLSASVGDRVTITCRASSSVSYMHWYQQKPGKAPKLLIYSTSNLASGVPSRFSGSGSGTDFTLTISSLQPEDFATYYCQQRSSYPLTFGGGTKLEIK
notes: huIgG1 P329G LALA; also called MFE-H25 / MFE-L25
B3 registered an AUC in assay [1] of 559. Moreover, in assay [2], the binding result was “no binding (tested: about 300 nM)”.

B4: P1AE3123 (antibody, IgG1, V domains shown)
VH: QVQLVQSGAEVKKPGASVKVSCKASGFNIKDSYMHWVRQAPGQGLEWMGWIDPENGGTNYAQKFQGRVTMTTDTSISTAYMELSRLRSDDTAVYYCNEGTPTGPYYFDYWGQGTLVTVSS
VL: DIQMTQSPSSLSASVGDRVTITCRASSSVSYMHWYQQKPGKAPKLLIYSTSNLASGVPSRFSGSGSGTDFTLTISSLQPEDFATYYCQQRSSYPLTFGGGTKLEIK
notes: huIgG1 P329G LALA; also called MFE-H26 / MFE-L24
In assay [1], B4 came in with an AUC of 1090. The binding result in assay [2] is “no binding (tested: about 300 nM)”.

B5: P1AE3124 (antibody, IgG1, V domains shown)
VH: QVQLVQSGAEVKKPGASVKVSCKASGYTFKDSYMHWVRQAPGQGLEWMGWIDPENGDTEYAPKFQGRVTMTTDTSISTAYMELSRLRSDDTAVYYCNEGTPTGPYYFDYWGQGTLVTVSS
VL: DIQMTQSPSSLSASVGDRVTITCRASSSVSYMHWYQQKPGKAPKLLIYSTSNLASGVPSRFSGSGSGTDFTLTISSLQPEDFATYYCQQRSSYPLTFGGGTKLEIK
notes: huIgG1 P329G LALA; also called MFE-H25 / MFE-L24
In assay [1], B5 yielded an AUC of 847. Further, in assay [2], the binding result is reported as “no binding (tested: about 300 nM)”.

B6: P1AE3122 (antibody, IgG1, V domains shown)
VH: QVQLVQSGAEVKKPGASVKVSCKASGFNIKDSYMHWVRQAPGQGLEWMGWIDPENGDTEYAPKFQGRVTMTTDTSISTAYMELSRLRSDDTAVYYCARGTPTGPYYFDYWGQGTLVTVSS
VL: DIQMTQSPSSLSASVGDRVTITCRASSSVSYMHWYQQKPGKAPKLLIYSTSNLASGVPSRFSGSGSGTDFTLTISSLQPEDFATYYCQQRSSYPLTFGGGTKLEIK
notes: huIgG1 P329G LALA; also called MFE-H27 / MFE-L24
B6 yielded an AUC in assay [1] of 422. Moreover, the binding result in assay [2] is “no binding (tested: about 300 nM)”.

B7: P1AE3116 (antibody, IgG1, V domains shown)
VH: QVQLVQSGAEVKKPGASVKVSCKASGFNIKDSYMHWVRQAPGQGLEWMGWIDPENGDTEYAPKFQGRVTMTTDTSISTAYMELSRLRSDDTAVYYCARGTPTGPYYFDYWGQGTLVTVSS
VL: EIQMTQSPSSLSASVGDRVTITCRASSSVSYMHWYQQKPGKAPKLLIYSTSNLASGVPSRFSGSGSGTDFTLTISSLQPEDFATYYCQQRSSYPLTFGGGTKLEIK
notes: huIgG1 P329G LALA; also called MFE-H27 / MFE-L25
On to B7, for which the AUC in assay [1] was 443. In addition, the binding result in assay [2] is on record as “no binding (tested: about 300 nM)”.

B8: P1AE3117 (antibody, IgG1, V domains shown)
VH: QVQLVQSGAEVKKPGASVKVSCKASGFNIKDSYMHWVRQAPGQGLEWMGWIDPENGGTNYAQKFQGRVTMTTDTSISTAYMELSRLRSDDTAVYYCNEGTPTGPYYFDYWGQGTLVTVSS
VL: EIQMTQSPSSLSASVGDRVTITCRASSSVSYMHWYQQKPGKAPKLLIYSTSNLASGVPSRFSGSGSGTDFTLTISSLQPEDFATYYCQQRSSYPLTFGGGTKLEIK
notes: huIgG1 P329G LALA; also called MFE-H26 / MFE-L25
As for B8, in assay [1], the AUC turned out to be 1180. In addition, the binding result in assay [2] is recorded as “no binding (tested: about 300 nM)”.

B9: P1AE3098 (antibody, IgG1, V domains shown)
VH: QVQLVQSGAEVKKPGASVKVSCKASGFNIKDSYMHWVRQAPGQGLEWMGWIDPENGDTEYAPKFQGRVTMTTDTSISTAYMELSRLRSDDTAVYYCARGTPTGPYYFDYWGQGTLVTVSS
VL: EIQMTQSPSSLSASVGDRVTITCRASSSVPYMHWLQQKPGKAPKLLIYSTSNLASGVPSRFSGSGSGTDFTLTISSVQPEDFATYYCQQRSSYPLTFGGGTKLEIK
notes: huIgG1 P329G LALA; also called MFE-H27 / MFE-L28
Molecule B9 registered an AUC in assay [1] of 1190. The binding result in assay [2] is “no binding (tested: about 300 nM)”.

B10: P1AE3104 (antibody, IgG1, V domains shown)
VH: QVQLVQSGAEVKKPGASVKVSCKASGFNIKDSYMHWVRQAPGQGLEWMGWIDPENGDTEYAPKFQGRVTMTTDTSISTAYMELSRLRSDDTAVYYCARGTPTGPYYFDYWGQGTLVTVSS
VL: EIQMTQSPSSLSASVGDRVTITCRASSSVPYMHWYQQKPGKAPKLLIYSTSNLASGVPSRFSGSGSGTDFTLTISSVQPEDFATYYCQQRSSYPLTFGGGTKLEIK
notes: huIgG1 P329G LALA; also called MFE-H27 / MFE-L27
Molecule B10 registered an AUC in assay [1] of 414. Besides, the binding result in assay [2] is “no binding (tested: about 300 nM)”.

B11: P1AE3092 (antibody, IgG1, V domains shown)
VH: QVQLVQSGAEVKKPGASVKVSCKASGFNIKDSYMHWVRQAPGQGLEWMGWIDPENGDTEYAPKFQGRVTMTTDTSISTAYMELSRLRSDDTAVYYCARGTPTGPYYFDYWGQGTLVTVSS
VL: EIQMTQSPSSLSASVGDRVTITCRASSSVPYMHWLQQKPGKAPKLLIYSTSSLQSGVPSRFSGSGSGTDFTLTISSVQPEDFATYYCQQRSSYPLTFGGGTKLEIK
notes: huIgG1 P329G LALA; also called MFE-H27 / MFE-L29
In assay [1], B11 gave an AUC of 482. In addition, the binding result in assay [2] was “no binding (tested: about 300 nM)”.

B12: P1AE0289 CEA (A5B7) Fab (parental murine antibody) (Fab, V domains shown)
VH: EVKLVESGGGLVQPGGSLRLSCATSGFTFTDYYMNWVRQPPGKALEWLGFIGNKANGYTTEYSASVKGRFTISRDKSQSILYLQMNTLRAEDSATYYCTRDRGLRFYFDYWGQGTTLTVSS
VL: QTVLSQSPAILSASPGEKVTMTCRASSSVTYIHWYQQKPGSSPKSWIYATSNLASGVPARFSGSGSGTSYSLTISRVEAEDAATYYCQHWSSKPPTFGGGTKLEIK
notes: Fab fragment
In turn, B12 came in with a Kd with hu N(A2-B2)A-avi-His of 0.559 nM.

B13: P1AE4138 (Fab, V domains shown)
VH: EVQLLESGGGLVQPGGSLRLSCAASGFTFTDYYMNWVRQAPGKGLEWLGFIGNKANGYTTEYSASVKGRFTISRDKSKNTLYLQMNSLRAEDTATYYCTRDRGLRFYFDYWGQGTTVTVSS
VL: EIVLTQSPATLSLSPGERATLSCRASSSVTYIHWYQQKPGQAPRSWIYATSNLASGIPARFSGSGSGTDFTLTISSLEPEDFAVYYCQHWSSKPPTFGQGTKLEIK
notes: Fab fragment; Ckappa light chain; also called Fab derived from P1AE2167
B13 came in with a Kd in the assay with hu N(A2-B2)A-avi-His of 1.47 nM.

B14: P1AE4136 (Fab, V domains shown)
VH: EVQLLESGGGLVQPGGSLRLSCAASGFTFTDYYMNWVRQAPGKGLEWLGFIGNKANGYTTEYSASVKGRFTISRDKSKNTLYLQMNSLRAEDTATYYCTRDRGLRFYFDYWGQGTTVTVSS
VL: QTVLTQSPATLSLSPGERATLSCRASSSVTYIHWYQQKPGQAPRLLIYATSNLASGIPARFSGSGSGTDFTLTISSLEPEDFAVYYCQHWSSKPPTFGQGTKLEIK
notes: Fab fragment; also called Fab derived from P1AE2165
With B14, in the assay with hu N(A2-B2)A-avi-His, the Kd was 1.25 nM.

B15: P1AE4135 (Fab, V domains shown)
VH: EVQLLESGGGLVQPGGSLRLSCAASGFTFTDYYMNWVRQAPGKGLEWLGFIGNKANGYTTEYSASVKGRFTISRDKSKNTLYLQMNSLRAEDTATYYCTRDRGLRFYFDYWGQGTTVTVSS
VL: QTVLTQSPATLSLSPGERATLSCRASSSVTYIHWYQQKPGSSPKSWIYATSNLASGIPARFSGSGSGTDYTLTISSLEPEDFAVYYCQHWSSKPPTFGQGTKLEIK
notes: Fab fragment; also called Fab derived from P1AE2164
As to B15, the equilibrium dissociation constant (Kd) with hu N(A2-B2)A-avi-His was 1.7 nM.
